Target: human fibronectin (human) (UniProt P02751)
Test: AFM single molecule force spectroscopy

Which most probable rupture force fMP does the source give for “pilus-1 adhesin RrgA from Streptococcus pneumoniae (natural protein)” here?
The most probable rupture force fMP was 51.6 pN.
